According to article PMC2690687:

Molecular target: Epstein-Barr Nuclear Antigen 1 (EBNA1), wild type (Epstein-Barr virus) (UniProt P03211)

Epstein-Barr Nuclear Antigen 1 (EBNA1), wild type (from UniProt P03211 1-641) (natural protein)
transactivation of TKp-luciferase reporters with one to 20 EBNA1-binding sites, 20 sites over a single site, C33a cells: 150 fold
